Measured values: patent US20190177417A1 (BIOATLA, published 2019)

T1: Axl protein (human, UniProt P30530 26-451)
T1 construct: extracellular domain; also called human Axl; hAxl
T1 sequence (looked up): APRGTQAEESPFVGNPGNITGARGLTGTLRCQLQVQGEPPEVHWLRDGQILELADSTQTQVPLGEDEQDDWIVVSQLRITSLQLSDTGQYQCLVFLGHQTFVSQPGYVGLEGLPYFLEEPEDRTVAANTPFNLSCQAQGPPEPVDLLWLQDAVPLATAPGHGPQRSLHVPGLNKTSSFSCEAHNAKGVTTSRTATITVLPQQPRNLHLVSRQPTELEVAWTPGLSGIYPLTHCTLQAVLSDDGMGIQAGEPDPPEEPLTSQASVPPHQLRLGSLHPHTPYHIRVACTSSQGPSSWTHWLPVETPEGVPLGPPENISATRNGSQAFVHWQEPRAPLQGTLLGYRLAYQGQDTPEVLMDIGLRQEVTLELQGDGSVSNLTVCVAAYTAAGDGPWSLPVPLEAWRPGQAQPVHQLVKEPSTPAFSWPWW


Experiments:
Axl protein [1] = target: T1, Axl protein; assay: ELISA, 1:3 dilution, pH 6.0 over pH 7.4
Axl protein [2] = target: T1, Axl protein; assay: ELISA, 1:9 dilution, pH 6.0 over pH 7.4

Row | Binder | Affinity ELISA CPE mutant ratio (1:3, pH 6.0/7.4) (Axl protein [1]) [ratio] | Affinity ELISA CPE mutant ratio (1:9, pH 6.0/7.4) (Axl protein [2]) [ratio]
1 | HC-F105T (antibody, V domains shown) VH: EVQLVQSGAEVKKPGATVKISCKVSGYSFTGHTMNWIRQPPGKGLEWIGLIKPSNGGTSYNQKFKGRVTISADKSISTAYLQWSSLKASDTAMYYCAHGHYESYTAMDYWGQGTLVTVSS VL: DIQMTQSPSSLSASVGDRVTITCKASQDVSSAVAWYQQKPGQAPRLLIYWASTRHTGVPSRFSGSGSGTEFTLTISSLQPDDFATYYCQEHFSTPLTFGQGTKVEIK | 3.46 | 4.02
2 | HC-W110A (antibody, V domains shown) VH: EVQLVQSGAEVKKPGATVKISCKVSGYSFTGHTMNWIRQPPGKGLEWIGLIKPSNGGTSYNQKFKGRVTISADKSISTAYLQWSSLKASDTAMYYCAHGHYESYFAMDYAGQGTLVTVSS VL: DIQMTQSPSSLSASVGDRVTITCKASQDVSSAVAWYQQKPGQAPRLLIYWASTRHTGVPSRFSGSGSGTEFTLTISSLQPDDFATYYCQEHFSTPLTFGQGTKVEIK | 7.91 | 1.2
3 | HC-A106D (antibody, V domains shown) VH: EVQLVQSGAEVKKPGATVKISCKVSGYSFTGHTMNWIRQPPGKGLEWIGLIKPSNGGTSYNQKFKGRVTISADKSISTAYLQWSSLKASDTAMYYCAHGHYESYFDMDYWGQGTLVTVSS VL: DIQMTQSPSSLSASVGDRVTITCKASQDVSSAVAWYQQKPGQAPRLLIYWASTRHTGVPSRFSGSGSGTEFTLTISSLQPDDFATYYCQEHFSTPLTFGQGTKVEIK | 3.39 | 2.51
4 | HC-W110T (antibody, V domains shown) VH: EVQLVQSGAEVKKPGATVKISCKVSGYSFTGHTMNWIRQPPGKGLEWIGLIKPSNGGTSYNQKFKGRVTISADKSISTAYLQWSSLKASDTAMYYCAHGHYESYFAMDYTGQGTLVTVSS VL: DIQMTQSPSSLSASVGDRVTITCKASQDVSSAVAWYQQKPGQAPRLLIYWASTRHTGVPSRFSGSGSGTEFTLTISSLQPDDFATYYCQEHFSTPLTFGQGTKVEIK | 7.47 | 1.37
5 | HC-A106G (antibody, V domains shown) VH: EVQLVQSGAEVKKPGATVKISCKVSGYSFTGHTMNWIRQPPGKGLEWIGLIKPSNGGTSYNQKFKGRVTISADKSISTAYLQWSSLKASDTAMYYCAHGHYESYFGMDYWGQGTLVTVSS VL: DIQMTQSPSSLSASVGDRVTITCKASQDVSSAVAWYQQKPGQAPRLLIYWASTRHTGVPSRFSGSGSGTEFTLTISSLQPDDFATYYCQEHFSTPLTFGQGTKVEIK | 1.52 | 2.2
6 | HC-E102G (antibody, V domains shown) VH: EVQLVQSGAEVKKPGATVKISCKVSGYSFTGHTMNWIRQPPGKGLEWIGLIKPSNGGTSYNQKFKGRVTISADKSISTAYLQWSSLKASDTAMYYCAHGHYGSYFAMDYWGQGTLVTVSS VL: DIQMTQSPSSLSASVGDRVTITCKASQDVSSAVAWYQQKPGQAPRLLIYWASTRHTGVPSRFSGSGSGTEFTLTISSLQPDDFATYYCQEHFSTPLTFGQGTKVEIK | 1.8 | 2.68
7 | HC-W110R (antibody, V domains shown) VH: EVQLVQSGAEVKKPGATVKISCKVSGYSFTGHTMNWIRQPPGKGLEWIGLIKPSNGGTSYNQKFKGRVTISADKSISTAYLQWSSLKASDTAMYYCAHGHYESYFAMDYRGQGTLVTVSS VL: DIQMTQSPSSLSASVGDRVTITCKASQDVSSAVAWYQQKPGQAPRLLIYWASTRHTGVPSRFSGSGSGTEFTLTISSLQPDDFATYYCQEHFSTPLTFGQGTKVEIK | 5.99 | 1.06
8 | HC-M107F (antibody, V domains shown) VH: EVQLVQSGAEVKKPGATVKISCKVSGYSFTGHTMNWIRQPPGKGLEWIGLIKPSNGGTSYNQKFKGRVTISADKSISTAYLQWSSLKASDTAMYYCAHGHYESYFAFDYWGQGTLVTVSS VL: DIQMTQSPSSLSASVGDRVTITCKASQDVSSAVAWYQQKPGQAPRLLIYWASTRHTGVPSRFSGSGSGTEFTLTISSLQPDDFATYYCQEHFSTPLTFGQGTKVEIK | 20.6 | 1.09
9 | HC-W110L (antibody, V domains shown) VH: EVQLVQSGAEVKKPGATVKISCKVSGYSFTGHTMNWIRQPPGKGLEWIGLIKPSNGGTSYNQKFKGRVTISADKSISTAYLQWSSLKASDTAMYYCAHGHYESYFAMDYLGQGTLVTVSS VL: DIQMTQSPSSLSASVGDRVTITCKASQDVSSAVAWYQQKPGQAPRLLIYWASTRHTGVPSRFSGSGSGTEFTLTISSLQPDDFATYYCQEHFSTPLTFGQGTKVEIK | 8.22 | 0.924
10 | HC-A106Y (antibody, V domains shown) VH: EVQLVQSGAEVKKPGATVKISCKVSGYSFTGHTMNWIRQPPGKGLEWIGLIKPSNGGTSYNQKFKGRVTISADKSISTAYLQWSSLKASDTAMYYCAHGHYESYFYMDYWGQGTLVTVSS VL: DIQMTQSPSSLSASVGDRVTITCKASQDVSSAVAWYQQKPGQAPRLLIYWASTRHTGVPSRFSGSGSGTEFTLTISSLQPDDFATYYCQEHFSTPLTFGQGTKVEIK | 3.29 | 3.06
11 | HC-F105V (antibody, V domains shown) VH: EVQLVQSGAEVKKPGATVKISCKVSGYSFTGHTMNWIRQPPGKGLEWIGLIKPSNGGTSYNQKFKGRVTISADKSISTAYLQWSSLKASDTAMYYCAHGHYESYVAMDYWGQGTLVTVSS VL: DIQMTQSPSSLSASVGDRVTITCKASQDVSSAVAWYQQKPGQAPRLLIYWASTRHTGVPSRFSGSGSGTEFTLTISSLQPDDFATYYCQEHFSTPLTFGQGTKVEIK | 2.43 | 2.8
12 | HC-W110D (antibody, V domains shown) VH: EVQLVQSGAEVKKPGATVKISCKVSGYSFTGHTMNWIRQPPGKGLEWIGLIKPSNGGTSYNQKFKGRVTISADKSISTAYLQWSSLKASDTAMYYCAHGHYESYFAMDYDGQGTLVTVSS VL: DIQMTQSPSSLSASVGDRVTITCKASQDVSSAVAWYQQKPGQAPRLLIYWASTRHTGVPSRFSGSGSGTEFTLTISSLQPDDFATYYCQEHFSTPLTFGQGTKVEIK | 3.72 | 1.11
13 | HC-E102H (antibody, V domains shown) VH: EVQLVQSGAEVKKPGATVKISCKVSGYSFTGHTMNWIRQPPGKGLEWIGLIKPSNGGTSYNQKFKGRVTISADKSISTAYLQWSSLKASDTAMYYCAHGHYHSYFAMDYWGQGTLVTVSS VL: DIQMTQSPSSLSASVGDRVTITCKASQDVSSAVAWYQQKPGQAPRLLIYWASTRHTGVPSRFSGSGSGTEFTLTISSLQPDDFATYYCQEHFSTPLTFGQGTKVEIK | 2.08 | 2.31
14 | HC-W110N (antibody, V domains shown) VH: EVQLVQSGAEVKKPGATVKISCKVSGYSFTGHTMNWIRQPPGKGLEWIGLIKPSNGGTSYNQKFKGRVTISADKSISTAYLQWSSLKASDTAMYYCAHGHYESYFAMDYNGQGTLVTVSS VL: DIQMTQSPSSLSASVGDRVTITCKASQDVSSAVAWYQQKPGQAPRLLIYWASTRHTGVPSRFSGSGSGTEFTLTISSLQPDDFATYYCQEHFSTPLTFGQGTKVEIK | 4.3 | 0.8
15 | HC-A106L (antibody, V domains shown) VH: EVQLVQSGAEVKKPGATVKISCKVSGYSFTGHTMNWIRQPPGKGLEWIGLIKPSNGGTSYNQKFKGRVTISADKSISTAYLQWSSLKASDTAMYYCAHGHYESYFLMDYWGQGTLVTVSS VL: DIQMTQSPSSLSASVGDRVTITCKASQDVSSAVAWYQQKPGQAPRLLIYWASTRHTGVPSRFSGSGSGTEFTLTISSLQPDDFATYYCQEHFSTPLTFGQGTKVEIK | 21.5 | 1.61
16 | HC-M107E (antibody, V domains shown) VH: EVQLVQSGAEVKKPGATVKISCKVSGYSFTGHTMNWIRQPPGKGLEWIGLIKPSNGGTSYNQKFKGRVTISADKSISTAYLQWSSLKASDTAMYYCAHGHYESYFAEDYWGQGTLVTVSS VL: DIQMTQSPSSLSASVGDRVTITCKASQDVSSAVAWYQQKPGQAPRLLIYWASTRHTGVPSRFSGSGSGTEFTLTISSLQPDDFATYYCQEHFSTPLTFGQGTKVEIK | 2.16 | 1.36
17 | HC-E102M (antibody, V domains shown) VH: EVQLVQSGAEVKKPGATVKISCKVSGYSFTGHTMNWIRQPPGKGLEWIGLIKPSNGGTSYNQKFKGRVTISADKSISTAYLQWSSLKASDTAMYYCAHGHYMSYFAMDYWGQGTLVTVSS VL: DIQMTQSPSSLSASVGDRVTITCKASQDVSSAVAWYQQKPGQAPRLLIYWASTRHTGVPSRFSGSGSGTEFTLTISSLQPDDFATYYCQEHFSTPLTFGQGTKVEIK | 2.08 | 2.36
